Paper PMC4854314, “RNA protects a nucleoprotein complex against radiation damage” (Acta Crystallographica. Section D, Structural Biology, 2016)

Target: the molecule itself
Experiment: crystal structure; TRAP-RNA crystals, hanging drop, 2:1 molar ratio of TRAP to RNA, 70 mM potassium phosphate pH 7.8, 10 mM L-tryptophan; data collected at 100 K, 1.98 Å; asymmetric unit holds one RNA-bound and one non-RNA-bound TRAP ring

B1: trp RNA-binding attenuation protein (TRAP) from B. stearothermophilus (natural protein)
chain: MYTNSDFVVIKALEDGVNVIGLTRGADTRFHHSEKLDKGEVLIAQFTEHTSAIKVRGKAYIQTRHGVIESEGKK
notes: construct as in Hopcroft et al., 2002 (PDB 1gtf); 11 identical subunits form a ring; also called TRAP ring; source: overexpressed in Escherichia coli and purified; copies: 11
stoichiometry N: 11
